The values below come from patent publication US20110070185A1 (Janssen / Centocor, published 2011).

The chains are these.
B1: P13-15 (peptide)
peptide: DLPGMTK
notes: synthetic truncated peptide; also called DLPGMTK
B2: P3-2 (peptide)
peptide: VLNLLEL
notes: synthetic truncated peptide; also called VLNLLEL
B3: P3-5 (peptide)
peptide: SLVLNLL
notes: synthetic truncated peptide; also called SLVLNLL
B4: P3-7 (peptide)
peptide: SLVLNLL
notes: as for B3
B5: P3-6 (peptide)
peptide: SLVLNL
notes: synthetic truncated peptide; also called SLVLNL
B6: P13-14 (peptide)
peptide: VDLPGMT
notes: synthetic truncated peptide; also called VDLPGMT
B7: P3-3 (peptide)
peptide: LNLLEL
notes: synthetic truncated peptide; also called LNLLEL
B8: P14-4 (peptide)
peptide: LPGITRV
notes: synthetic truncated peptide; also called LPGITRV
B9: P13-5 (peptide)
peptide: PGMTKV
notes: synthetic truncated peptide; also called PGMTKV
B10: P13-10 (peptide)
peptide: TLVDLP
notes: synthetic truncated peptide; also called TLVDLP
B11: P14-10 (peptide)
peptide: TLIDLP
notes: synthetic truncated peptide; also called TLIDLP
B12: P14-17 (peptide)
peptide: DLPGITR
notes: synthetic truncated peptide; also called DLPGITR
B13: P13-4 (peptide)
peptide: LPGMTKV
notes: synthetic truncated peptide; also called LPGMTKV
B14: P14-5 (peptide)
peptide: PGITRV
notes: synthetic truncated peptide; also called PGITRV
B15: P13-9 (peptide)
peptide: TLVDLPG
notes: synthetic truncated peptide; also called TLVDLPG
B16: P14-9 (peptide)
peptide: TLIDLPG
notes: synthetic truncated peptide; also called TLIDLPG
B17: P3-8 (peptide)
peptide: LVLNLLE
notes: synthetic truncated peptide; also called LVLNLLE
B18: P4 (peptide)
peptide: RSLFLLYAL
notes: synthetic peptide; also called peptide 4; RSLFLLYAL
B19: P19 (peptide)
peptide: NLKAALENLGAL
notes: synthetic peptide; also called peptide 19; NLKAALENLGAL
B20: P2 (peptide)
peptide: LLPGRTVLV
notes: synthetic peptide; also called peptide 2
B21: P24 (peptide)
peptide: LKIHAREIFD
notes: synthetic peptide; also called peptide 24
B22: P18 (peptide)
peptide: LKNKLKDLGH
notes: synthetic peptide; also called peptide 18

The first assay addresses T1, HLA-A2 molecules in T2 cells (human).
T1 construct: whole, on cells; Target of the HLA-A2 Stabilization Assay; also called MHC class I, HLA-A2; MHC/HLA-A2
Nature of the assay: HLA-A2 stabilization assay on T2 cells.
For TLIDLPGITR (synthetic truncated peptide) [P14-6], the binding result is “no binding”.

Take B1: the binding result was “no binding”. Still for that read-out and setting: the value for B2 was “no binding”; that for B3 was “no binding”; that for VDLPGMTK (synthetic truncated peptide) [P13-12] was “no binding”. For B4, the binding result is given as “no binding”.

Turning to B5, the binding result is reported as “no binding”. Still for that read-out and setting: the value for TLVDLPGMTK (synthetic truncated peptide) [P13-6] was “no binding”.

In the case of TLVDLPGMT (synthetic truncated peptide) [P13-7], the binding result is recorded as “no binding”. Still for that read-out and setting: the value for SLVLNLLE (synthetic truncated peptide) [P3-4] was “no binding”; that for LIDLPGITRV (synthetic truncated peptide) [P14-1] was “no binding”; that for LIDLPGIT (synthetic truncated peptide) [P14-13] was “no binding”. On the same count and under the same terms, to LIDLPGITR (synthetic truncated peptide) [P14-12] belongs “no binding”. On the same count and under the same terms, the value for B6 was “no binding”; that for LVDLPGMTKV (synthetic truncated peptide) [P13-1] was “no binding”; that for LVDLPGMT (synthetic truncated peptide) [P13-11] was “no binding”. As for TLVDLPGM (synthetic truncated peptide) [P13-8], the binding result was “no binding”. On the same count and under the same terms, to LVLNLLEL (synthetic truncated peptide) [P3-1] belongs “no binding”; to TLIDLPGI (synthetic truncated peptide) [P14-8], “no binding”; to TLIDLPGIT (synthetic truncated peptide) [P14-11], “no binding”. On the same count and under the same terms, to DLPGITRV (synthetic truncated peptide) [P14-3] belongs “no binding”; to B7, “no binding”. Same read-out and setting: to B8 belongs “no binding”; to TLIDLPGIT (synthetic truncated peptide) [P14-7], “no binding”. For the molecule B9, the binding result is given as “no binding”. On the same count and under the same terms, to DLPGMTKV (synthetic truncated peptide) [P13-3] belongs “no binding”. On the same count and under the same terms, to B10 belongs “no binding”. Same read-out and setting: the value for B11 was “no binding”; that for B12 was “no binding”; that for B13 was “no binding”.

With B14, the binding result is “no binding”. Still for that read-out and setting: to IDLPGITRV (synthetic truncated peptide) [P14-2] belongs “no binding”.

For VDLPGMTKV (synthetic truncated peptide) [P13-2], the binding result is “no binding”. On the same count and under the same terms, to B15 belongs “no binding”; to B16, “no binding”; to B17, “no binding”.

The next assay has as its target T1, HLA-A2 molecules in T2 cells. Description: HLA-A2 stabilization assay on T2 cells. The source holds these as a separate data set.
Consider FMLQTYGQQL (synthetic computer predicted peptide) [P14-18], for which the binding result is reported as “no binding”.

For the next assay the target is unchanged. Nature of the assay: HLA-A2 stabilization assay on T2 cells, flow cytometry with FITC anti-HLA-A2.
Regarding B18, the binding result was “no binding (tested: up to 200 uM)”. In the case of B19, the binding result is on record as “no binding (tested: up to 200 uM)”. Still for that read-out and setting: to B20 belongs “no binding (tested: up to 200 uM)”.

B21: the binding result was “no binding (tested: up to 200 uM)”. Still for that read-out and setting: the value for B22 was “no binding (tested: up to 200 uM)”.
